{
  "source": "patent US20190062420A1",
  "about": "(Janssen / Centocor, published 2019)",
  "key": {"[1]": {"target": "T1, human OX40 expressed on HEK-Blue: OX40 cells (human, UniProt P43489 29-277)", "T1 construct": "also called CD134", "T1 sequence": "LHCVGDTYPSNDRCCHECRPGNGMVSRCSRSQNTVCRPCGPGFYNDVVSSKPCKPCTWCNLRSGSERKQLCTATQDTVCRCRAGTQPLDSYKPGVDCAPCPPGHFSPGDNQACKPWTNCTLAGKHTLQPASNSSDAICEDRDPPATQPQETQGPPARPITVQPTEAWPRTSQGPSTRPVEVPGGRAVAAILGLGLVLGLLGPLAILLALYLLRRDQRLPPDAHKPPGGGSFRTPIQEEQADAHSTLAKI", "assay": "flow cytometry; HEK-Blue: OX40 cells", "in_short": "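HEK-Blue Null 1 cells stably transfected with human OX40 were blocked, then incubated with mAbtyrin for 1.5 h at 4 °C. Binding was detected with a PE anti-human IgG F(ab′)₂ secondary, gating on DRAQ7-excluding live cells and taking geometric mean fluorescence. EC50 came from nonlinear regression versus log antibody concentration.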"}, "[2]": {"target": "T2, human FcγRIIA (NM_021642) expressed on cells (human, UniProt P12318 36-317)", "T2 sequence": "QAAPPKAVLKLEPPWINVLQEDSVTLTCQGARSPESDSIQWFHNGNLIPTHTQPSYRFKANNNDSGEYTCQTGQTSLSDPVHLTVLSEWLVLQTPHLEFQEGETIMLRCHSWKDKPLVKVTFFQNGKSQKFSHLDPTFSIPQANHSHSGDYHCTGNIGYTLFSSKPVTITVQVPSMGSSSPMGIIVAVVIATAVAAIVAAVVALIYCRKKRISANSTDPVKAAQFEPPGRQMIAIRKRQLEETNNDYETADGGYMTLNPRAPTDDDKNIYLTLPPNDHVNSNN", "assay": "cell-based or functional assay"}, "[3]": {"target": "human FcγRIIIA (NM_000569) expressed on cells (human, UniProt P08637 17-254)", "sequence (P08637 17-254 limits assumed)": "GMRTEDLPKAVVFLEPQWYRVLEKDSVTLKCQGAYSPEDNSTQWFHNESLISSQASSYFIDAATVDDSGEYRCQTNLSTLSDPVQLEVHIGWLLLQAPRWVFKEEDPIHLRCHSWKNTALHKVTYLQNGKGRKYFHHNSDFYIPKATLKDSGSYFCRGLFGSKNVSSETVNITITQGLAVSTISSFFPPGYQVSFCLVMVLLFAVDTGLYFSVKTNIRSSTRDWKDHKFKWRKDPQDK", "assay": "cell-based or functional assay"}, "FcγRIIA protein": {"target": "T3, FcγRIIA protein (human, UniProt P12318 36-217, biotinylated (SureLINK Biotin Kit) in the ELISA of Example 1)", "T3 sequence": "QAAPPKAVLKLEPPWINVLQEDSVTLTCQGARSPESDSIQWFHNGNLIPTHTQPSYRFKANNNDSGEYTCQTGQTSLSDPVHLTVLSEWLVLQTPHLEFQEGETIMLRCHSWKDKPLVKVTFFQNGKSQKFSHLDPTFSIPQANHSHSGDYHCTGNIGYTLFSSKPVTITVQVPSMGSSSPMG", "assay": "cell-based or functional assay"}, "FcγRIIB protein": {"target": "T4, FcγRIIB protein (human, UniProt P31994 43-217, biotinylated (SureLINK Biotin Kit) in the ELISA of Example 1)", "T4 sequence": "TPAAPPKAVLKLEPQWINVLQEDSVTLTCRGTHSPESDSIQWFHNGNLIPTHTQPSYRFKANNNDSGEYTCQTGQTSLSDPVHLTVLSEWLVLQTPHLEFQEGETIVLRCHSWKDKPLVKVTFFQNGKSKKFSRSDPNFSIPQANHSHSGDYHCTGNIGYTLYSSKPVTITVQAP", "assay": "cell-based or functional assay"}, "[4]": {"target": "T5, human FcγRIIB (NM_004001) expressed on cells (human, UniProt P31994 43-310)", "T5 sequence": "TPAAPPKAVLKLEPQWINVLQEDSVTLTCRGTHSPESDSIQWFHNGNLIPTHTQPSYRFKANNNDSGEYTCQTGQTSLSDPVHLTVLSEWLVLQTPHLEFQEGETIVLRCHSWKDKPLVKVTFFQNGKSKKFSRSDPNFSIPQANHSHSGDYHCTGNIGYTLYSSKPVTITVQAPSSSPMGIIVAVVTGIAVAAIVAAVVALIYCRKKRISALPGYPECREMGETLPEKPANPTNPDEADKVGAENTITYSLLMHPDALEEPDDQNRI", "assay": "cell-based or functional assay"}, "[5]": {"target": "T2, human FcγRIIA (NM_021642) expressed on …", "assay": "cell-based or functional assay", "remark": "listed apart in the source"}},
  "data": [
    {"binder": "OX40SF2IgG2sigma_R2BS29_HC-C (bispecific antibody, mAbtyrin: anti-OX40 antibody OX40SF2, effector silent IgG2sigma, with linker and R2BS29 FN3 domain at the C-terminus of the heavy chain; also called mAbtyrin) heavy: QVQLVQSGAEVKKPGSSVKVSCKASGYTFKDYTMHWVRQAPGQGLEWIGGIYPNNGGSTYNQNFKDRVTLTADKSTSTAYMELSSLRSEDTAVYYCARMGYHGPHLDFDVWGQGTTVTVSSASTKGPSVFPLAPCSRSTSESTAALGCLVKDYFPEPVTVSWNSGALTSGVHTFPAVLQSSGLYSLSSVVTVPSSNFGTQTYTCNVDHKPSNTKVDKTVERKCCVECPPCPAPPAAASSVFLFPPKPKDTLMISRTPEVTCVVVDVSAEDPEVQFNWYVDGVEVHNAKTKPREEQFNSTFRVVSVLTVLHQDWLNGKEYKCKVSNKGLPSSIEKTISKTKGQPREPQVYTLPPSREEMTKNQVSLTCLVKGFYPSDIAVEWESNGQPENNYKTTPPMLDSDGSFFLYSKLTVDKSRWQQGNVFSCSVMHEALHNHYTQKSLSLSPGKGGGGGSGGGGSGGGGSGGGGSLPAPKNLVVSRVTEDSARLSWTAPDAAFDSFPIYYWEYRVGGEAIVLTVPGSERSYDLTGLKPGTEYFVYINGVKGGEESRPLSAIFTT light: DIQMTQSPSSLSASVGDRVTITCKASQDVGAAVAWYQQKPGKAPKLLIYWASTRHTGVPSRFSGSGSGTDFTLTISSLQPEDFATYYCQQYINYPLTFGGGTKVEIKRTVAAPSVFIFPPSDEQLKSGTASVVCLLNNFYPREAKVQWKVDNALQSGNSQESVTEQDSKDSTYSLSSTLTLSKADYEKHKVYACEVTHQGLSSPVTKSFNRGEC", "values": [
      {"measurement": "Binding to HEK-Blue: OX40 cells (mean signal at 1 µg/ml)", "setting": "[1]", "result": 9180, "unit": "mean fluorescence signal"},
      {"measurement": "EC50", "setting": "[1]", "result": 0.548, "unit": "µg/mL"},
      {"measurement": "ADCP EC50", "setting": "[2]", "result": 0.0375, "unit": "µg/mL"},
      {"measurement": "ADCC (fold activation) at 1 µg/ml", "setting": "[3]", "result": 1, "unit": "fold"},
      {"measurement": "IFNγ production by activated CD4 T cells, plate-coated FcγRIIA", "setting": "FcγRIIA protein", "result": 1550, "unit": "pg/mL"},
      {"measurement": "TNFα production by activated CD4 T cells, plate-coated FcγRIIA", "setting": "FcγRIIA protein", "result": 226, "unit": "pg/mL"},
      {"measurement": "IFNγ production by activated CD4 T cells, plate-coated FcγRIIb", "setting": "FcγRIIB protein", "result": 1330, "unit": "pg/mL"},
      {"measurement": "TNFα production by activated CD4 T cells, plate-coated FcγRIIb", "setting": "FcγRIIB protein", "result": 250, "unit": "pg/mL"},
      {"measurement": "% activity at 1 µg/ml with Raji cells (HEK-Blue: OX40 NF-κB reporter)", "setting": "[4]", "result": 93, "unit": "%"},
      {"measurement": "% OX40 cell killed by macrophages (ADCP, 1 µg/ml)", "setting": "[5]", "result": 88, "unit": "%"}
    ]},
    {"binder": "OX40SF2IgG1 (antibody, Anti-OX40 antibody, wild-type IgG1; control without FN3 domain) heavy: not shown light: DIQMTQSPSSLSASVGDRVTITCKASQDVGAAVAWYQQKPGKAPKLLIYWASTRHTGVPSRFSGSGSGTDFTLTISSLQPEDFATYYCQQYINYPLTFGGGTKVEIKRTVAAPSVFIFPPSDEQLKSGTASVVCLLNNFYPREAKVQWKVDNALQSGNSQESVTEQDSKDSTYSLSSTLTLSKADYEKHKVYACEVTHQGLSSPVTKSFNRGEC", "values": [
      {"measurement": "EC50", "setting": "[1]", "result": 0.229, "unit": "µg/mL"},
      {"measurement": "ADCP EC50", "setting": "[2]", "result": 0.0393, "unit": "µg/mL"},
      {"measurement": "ADCC (fold activation) at 1 µg/ml", "setting": "[3]", "result": 9, "unit": "fold"},
      {"measurement": "IFNγ production by activated CD4 T cells, plate-coated FcγRIIA", "setting": "FcγRIIA protein", "result": 92, "unit": "pg/mL"},
      {"measurement": "TNFα production by activated CD4 T cells, plate-coated FcγRIIA", "setting": "FcγRIIA protein", "result": 28, "unit": "pg/mL"},
      {"measurement": "IFNγ production by activated CD4 T cells, plate-coated FcγRIIb", "setting": "FcγRIIB protein", "result": 70, "unit": "pg/mL"},
      {"measurement": "TNFα production by activated CD4 T cells, plate-coated FcγRIIb", "setting": "FcγRIIB protein", "result": 30, "unit": "pg/mL"},
      {"measurement": "% activity at 1 µg/ml with Raji cells (HEK-Blue: OX40 NF-κB reporter)", "setting": "[4]", "result": 9, "unit": "%"}
    ]},
    {"binder": "OX40SF2IgG2sigma (antibody, Anti-OX40 antibody, IgG2 sigma isotype (effector silent Fc: V234A, G237A, P238S, H268A, V309L, A330S, P331S against wild type IgG2); control without FN3 domain; also called parental antibody; parental OX40 antibody) heavy: QVQLVQSGAEVKKPGSSVKVSCKASGYTFKDYTMHWVRQAPGQGLEWIGGIYPNNGGSTYNQNFKDRVTLTADKSTSTAYMELSSLRSEDTAVYYCARMGYHGPHLDFDVWGQGTTVTVSSASTKGPSVFPLAPCSRSTSESTAALGCLVKDYFPEPVTVSWNSGALTSGVHTFPAVLQSSGLYSLSSVVTVPSSNFGTQTYTCNVDHKPSNTKVDKTVERKCCVECPPCPAPPAAASSVFLFPPKPKDTLMISRTPEVTCVVVDVSAEDPEVQFNWYVDGVEVHNAKTKPREEQFNSTFRVVSVLTVLHQDWLNGKEYKCKVSNKGLPSSIEKTISKTKGQPREPQVYTLPPSREEMTKNQVSLTCLVKGFYPSDIAVEWESNGQPENNYKTTPPMLDSDGSFFLYSKLTVDKSRWQQGNVFSCSVMHEALHNHYTQKSLSLSPGK light: DIQMTQSPSSLSASVGDRVTITCKASQDVGAAVAWYQQKPGKAPKLLIYWASTRHTGVPSRFSGSGSGTDFTLTISSLQPEDFATYYCQQYINYPLTFGGGTKVEIKRTVAAPSVFIFPPSDEQLKSGTASVVCLLNNFYPREAKVQWKVDNALQSGNSQESVTEQDSKDSTYSLSSTLTLSKADYEKHKVYACEVTHQGLSSPVTKSFNRGEC", "values": [
      {"measurement": "Binding to HEK-Blue: OX40 cells (mean signal at 1 µg/ml)", "setting": "[1]", "result": 13900, "unit": "mean fluorescence signal"},
      {"measurement": "EC50", "setting": "[1]", "result": 0.166, "unit": "µg/mL"},
      {"measurement": "ADCP EC50", "setting": "[2]", "result": "> 1", "unit": "µg/mL"},
      {"measurement": "ADCC (fold activation) at 1 µg/ml", "setting": "[3]", "result": 1, "unit": "fold"},
      {"measurement": "IFNγ production by activated CD4 T cells, plate-coated FcγRIIA", "setting": "FcγRIIA protein", "result": 97, "unit": "pg/mL"},
      {"measurement": "TNFα production by activated CD4 T cells, plate-coated FcγRIIA", "setting": "FcγRIIA protein", "result": 28, "unit": "pg/mL"},
      {"measurement": "IFNγ production by activated CD4 T cells, plate-coated FcγRIIb", "setting": "FcγRIIB protein", "result": 70, "unit": "pg/mL"},
      {"measurement": "TNFα production by activated CD4 T cells, plate-coated FcγRIIb", "setting": "FcγRIIB protein", "result": 30, "unit": "pg/mL"},
      {"measurement": "% activity at 1 µg/ml with Raji cells (HEK-Blue: OX40 NF-κB reporter)", "setting": "[4]", "result": 2, "unit": "%"},
      {"measurement": "% OX40 cell killed by macrophages (ADCP, 1 µg/ml)", "setting": "[5]", "result": 12, "unit": "%"}
    ]}
  ]
}
